Assay results taken from patent US20230340152A1 (published 2023).

Tests used:
[1] = target: T1, Murine CD73 on cells (4T1, Jurkat mCD73 knock-in) (murine, UniProt Q61503 29-551); assay: flow cytometry, Jurkat (mCD73 knock-in) / Jurkat
T1 construct: whole, on cells; also called 4T1 (murine)
T1 sequence (looked up): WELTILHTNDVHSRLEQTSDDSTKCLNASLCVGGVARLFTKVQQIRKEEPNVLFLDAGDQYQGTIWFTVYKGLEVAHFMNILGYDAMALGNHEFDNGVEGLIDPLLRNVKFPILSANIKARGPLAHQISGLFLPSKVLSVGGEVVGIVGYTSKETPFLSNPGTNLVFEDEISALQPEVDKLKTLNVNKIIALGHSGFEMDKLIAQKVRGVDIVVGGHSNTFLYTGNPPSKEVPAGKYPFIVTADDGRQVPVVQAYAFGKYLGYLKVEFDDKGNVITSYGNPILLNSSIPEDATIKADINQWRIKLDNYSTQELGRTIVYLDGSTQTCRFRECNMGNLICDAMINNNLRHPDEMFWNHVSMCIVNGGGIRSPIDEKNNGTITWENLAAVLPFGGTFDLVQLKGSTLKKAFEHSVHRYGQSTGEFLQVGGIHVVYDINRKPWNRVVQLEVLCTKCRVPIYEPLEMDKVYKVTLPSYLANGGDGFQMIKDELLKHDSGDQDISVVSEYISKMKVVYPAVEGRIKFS

[2] = target: T2, Human CD73 N185G, His-tagged (human, UniProt P21589 27-549); assay: SPR (ProteOn), CD73 variant immobilized; 2:1 fit
T2 sequence: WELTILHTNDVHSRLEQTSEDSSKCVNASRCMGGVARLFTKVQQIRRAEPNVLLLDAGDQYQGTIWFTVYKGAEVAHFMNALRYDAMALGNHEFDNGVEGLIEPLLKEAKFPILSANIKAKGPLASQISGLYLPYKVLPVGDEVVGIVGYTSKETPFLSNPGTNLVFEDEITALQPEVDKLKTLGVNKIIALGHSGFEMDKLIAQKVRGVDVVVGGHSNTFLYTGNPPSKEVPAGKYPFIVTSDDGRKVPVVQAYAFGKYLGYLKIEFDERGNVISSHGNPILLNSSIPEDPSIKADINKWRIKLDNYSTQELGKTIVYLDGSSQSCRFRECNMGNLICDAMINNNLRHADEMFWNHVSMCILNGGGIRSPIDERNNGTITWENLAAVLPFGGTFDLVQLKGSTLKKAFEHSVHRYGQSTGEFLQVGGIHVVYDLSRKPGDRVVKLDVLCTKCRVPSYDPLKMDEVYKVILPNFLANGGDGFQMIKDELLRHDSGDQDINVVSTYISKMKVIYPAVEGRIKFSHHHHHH
Description: Binding of MEDI9447 to wild-type and mutant CD73 proteins was measured by surface plasmon resonance (SPR) using a ProteOn instrument (BioRad). CD73 crude cell supernatant protein samples were diluted to 3 µg/ml in PBS, 0.005% Tween-20, pH 7.4 (BioRad) and immobilized to ~400 RU on a HTG tris-NTA sensor chip (BioRad) pre-activated with 10 mM NiSO₄, 10 mM MES, pH 6.0 (BioRad). An equivalently diluted crude cell supernatant sample from non-transfected cells was included as a reference channel control. Sensorgrams were recorded by flowing two-fold dilutions of MEDI9447 prepared in PBS, 0.005% Tween-20, pH 7.4, ranging from 5 nM to 0.31 nM. […] Antibody binding was measured at a flow rate of 100 µL/min with a 3 min association phase and 20 min dissociation phase. The sensor chip surface was regenerated between each run by an 800 s injection of 300 mM EDTA, pH 8.5 (BioRad) at a flow rate of 30 µL/min. Binding kinetics were analyzed using the ProteOn data analysis software. Double referencing was performed and, unless noted otherwise, a 1:1 Langmuir binding model was utilized to fit the data. Some CD73 variants containing mutations within the amino acid region 171-188 fit poorly to a 1:1 model (i.e., Chi² values >10% of Rmax). Where noted, these variants were fit with a heterogenous antigen (2:1) model. […] Due to the assay format (antigen immobilized) and the dimeric state of CD73, KD values may be exaggerated due to avidity effects. However, it is not anticipated that this impacts ranking of MEDI9447 binding to the different CD73 variants.

Cynomolgus CD73 ECD = target: T3, Cynomolgus CD73 ECD (cynomolgus, UniProt A0A2K5V5U7 27-549); assay: SPR (ProteOn), antibody captured by anti-human Fc, CD73 ECD in mobile phase
T3 construct: extracellular domain; also called cyno CD73
T3 sequence: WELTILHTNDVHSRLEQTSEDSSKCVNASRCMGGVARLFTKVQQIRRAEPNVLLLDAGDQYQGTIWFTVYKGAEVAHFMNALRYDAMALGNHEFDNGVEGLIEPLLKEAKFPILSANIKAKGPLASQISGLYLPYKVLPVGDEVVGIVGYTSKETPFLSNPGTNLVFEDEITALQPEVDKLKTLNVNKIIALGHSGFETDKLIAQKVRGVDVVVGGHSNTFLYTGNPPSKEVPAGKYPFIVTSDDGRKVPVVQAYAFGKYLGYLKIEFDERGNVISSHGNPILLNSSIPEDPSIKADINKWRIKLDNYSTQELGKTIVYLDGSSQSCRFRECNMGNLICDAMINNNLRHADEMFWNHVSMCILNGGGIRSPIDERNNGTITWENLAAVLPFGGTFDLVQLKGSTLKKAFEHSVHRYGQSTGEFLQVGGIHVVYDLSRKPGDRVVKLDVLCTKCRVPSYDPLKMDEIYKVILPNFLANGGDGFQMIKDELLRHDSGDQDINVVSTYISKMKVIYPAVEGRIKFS
Source text: (§1) A ProteOn XPR36 instrument was used to characterize binding of MEDI9447 to human, murine, and cynomolgus CD73 ECD. MEDI9447 was affinity-captured using an anti-human Fc antibody. CD73 ECD was in the mobile phase. The association and dissociation of CD73 to MEDI9447 could be accurately described with the Langmuir 1: 1 model.

Murine CD73 ECD = target: T4, Murine CD73 ECD (murine, UniProt Q61503 29-551, limits assumed); assay: as above
T4 construct: extracellular domain; In-house recombinant ECD; also called murine CD73 extracellular domain; muCD73
T4 sequence (looked up): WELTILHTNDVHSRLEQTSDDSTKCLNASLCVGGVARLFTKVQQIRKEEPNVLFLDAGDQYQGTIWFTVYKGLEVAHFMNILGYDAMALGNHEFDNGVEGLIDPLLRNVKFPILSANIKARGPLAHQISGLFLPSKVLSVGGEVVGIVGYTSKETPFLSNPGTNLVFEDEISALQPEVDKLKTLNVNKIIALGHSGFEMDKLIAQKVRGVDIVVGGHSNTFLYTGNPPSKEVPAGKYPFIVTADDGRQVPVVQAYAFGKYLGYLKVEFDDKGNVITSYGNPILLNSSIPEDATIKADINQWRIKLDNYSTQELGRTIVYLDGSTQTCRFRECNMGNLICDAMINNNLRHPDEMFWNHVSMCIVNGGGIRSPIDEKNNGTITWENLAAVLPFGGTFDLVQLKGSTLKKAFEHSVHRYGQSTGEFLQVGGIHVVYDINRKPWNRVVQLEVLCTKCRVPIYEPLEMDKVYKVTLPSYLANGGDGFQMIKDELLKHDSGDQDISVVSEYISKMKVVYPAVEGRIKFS
Source text: as §1

B1: MEDI9447 (antibody, human IgG1, lambda, V domains shown)
VH: EVQLLESGGGLVQPGGSLRLSCAASGFTFSSYAYSWVRQAPGKGLEWVSAISGSGGRTYYADSVKGRFTISRDNSKNTLYLQMNSLRAEDTAVYYCARLGYGRVDEWGRGTLVTVSS
VL: QSVLTQPPSASGTPGQRVTISCSGSLSNIGRNPVNWYQQLPGTAPKLLIYLDNLRLSGVPDRFSGSKSGTSASLAISGLQSEDEADYYCATWDDSHPGWTFGGGTKLTVLG
notes: Human IgG1-TM (L234F, L235E, P331S), lambda light chain; also called clone 10.3 antibody; 73combo3
[1]
  Mean Fluorescence Intensity Ratio (MFIR): 57.1
[2]
  koff: 0.000245 s⁻¹
  kon: 9.11e+06 M⁻¹ s⁻¹
Cynomolgus CD73 ECD
  Kd: 6.5 pM
  koff: 1.76e-05 s⁻¹
  kon: 2.71e+06 M⁻¹ s⁻¹
Murine CD73 ECD
  koff: 2.32e-06 s⁻¹
  kon: 2.41e+06 M⁻¹ s⁻¹
